US20230265151A1, “GIP/GLP1 CO-AGONIST COMPOUNDS” (priority 2020, published 2023)
*1 amine or outer side, *2 acyl side, *3 side chain or, on linkers, in order; H or OH if unused. Where no end group is shown, it is not given here. Side-chain parts run from the residue outwards. [ ]: non-standard residue; d: D form. The star is where a group is joined. Decanoyl(10-(4-HOOC-PhO)) = O=C(O)c1ccc(OCCCCCCCCCC(=O)*)cc1; αMePhe(2-F) = C[C@](N)(Cc1ccccc1F)C(=O)O; γGlu = O=C(O)[C@H](CCC(=O)[*:2])N[*:1]; C14 diacid = O=C(O)CCCCCCCCCCCCC(=O)*; αMeY = C[C@](N)(Cc1ccc(O)cc1)C(=O)O; αMeL = CC(C)C[C@](C)(N)C(=O)O; Orn = NCCC[C@H](N)C(=O)O; AEEA = NCCOCCOCC(=O)O; Aib = CC(C)(N)C(=O)O

T1: human GIP receptor (human, UniProt P48546 22-466)
T1 construct: whole, on cells; also called hGIPR; human glucose-dependent insulinotropic polypeptide receptor
T1 sequence (looked up): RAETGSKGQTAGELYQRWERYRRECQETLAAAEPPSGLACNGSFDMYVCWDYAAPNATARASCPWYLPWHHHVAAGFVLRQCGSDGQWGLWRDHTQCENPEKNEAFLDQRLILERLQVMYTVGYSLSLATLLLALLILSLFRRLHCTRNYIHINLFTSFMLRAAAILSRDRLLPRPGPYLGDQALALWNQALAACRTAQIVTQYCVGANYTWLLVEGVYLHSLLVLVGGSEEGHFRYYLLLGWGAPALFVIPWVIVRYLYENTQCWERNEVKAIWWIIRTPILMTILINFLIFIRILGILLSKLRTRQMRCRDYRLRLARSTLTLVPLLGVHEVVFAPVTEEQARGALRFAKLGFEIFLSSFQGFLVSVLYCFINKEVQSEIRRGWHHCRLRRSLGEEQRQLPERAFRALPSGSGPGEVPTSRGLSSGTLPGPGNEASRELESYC


What was measured:
human glucagon receptor = molecular target: T2, human glucagon receptor (human, UniProt P47871 26-477); experiment: SPA competition vs [125I]-Gcg, hGcgR membranes
T2 construct: whole, on cells; also called hGCGR; hGcgR
T2 sequence (P47871 26-477): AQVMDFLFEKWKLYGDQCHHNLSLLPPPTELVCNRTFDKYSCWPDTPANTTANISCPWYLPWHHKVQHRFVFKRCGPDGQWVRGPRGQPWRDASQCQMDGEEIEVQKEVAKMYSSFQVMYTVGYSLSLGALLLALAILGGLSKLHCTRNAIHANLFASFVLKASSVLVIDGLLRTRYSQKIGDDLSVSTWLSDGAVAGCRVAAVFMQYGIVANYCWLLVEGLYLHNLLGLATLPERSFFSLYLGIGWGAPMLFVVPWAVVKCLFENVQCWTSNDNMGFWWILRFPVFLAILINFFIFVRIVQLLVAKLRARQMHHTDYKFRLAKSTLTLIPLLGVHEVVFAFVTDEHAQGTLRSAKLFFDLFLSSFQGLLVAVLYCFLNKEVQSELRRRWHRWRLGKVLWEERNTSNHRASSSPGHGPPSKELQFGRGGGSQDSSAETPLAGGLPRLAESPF
Experimental: The binding buffer contains 25 mM 4-(2-hydroxyethyl)-1-piperazineethanesulfonic acid (HEPES), pH 7.4, 2.5 mM CaCl₂, 1 mM MgCh, 0.1% (w/v) bacitracin (Research Products), 0.003% (w/v) Polyoxyethylenesorbitan monolaurate (TWEEN®-20), and Roche Complete™ Protease Inhibitors without EDTA. […] Plates are sealed and mixed on a plate shaker (setting 6) for 1 minute and read with a PerkinElmer Trilux MicroBeta® scintillation counter after 12 hours of incubation/settling time at room temperature.
Data are analyzed using four-parameter (curve maximum, curve minimum, IC₅₀, Hill slope) nonlinear regression routines (Genedata Screener, version 12.0.4, Genedata AG, Basal, Switzerland). […] Values for Kᵢ are reported as the geometric mean, with error expressed as the standard error of the mean (SEM) and n is equal to the number of independent replicates (determined in assays performed on different days).

human GLP-1 receptor = molecular target: T3, human GLP-1 receptor (human, UniProt P43220 24-463); experiment: SPA competition vs [125I]-GLP-1, hGLP-1R membranes
T3 construct: whole, on cells; also called hGLP-1R; human glucagon-like peptide-1 receptor
In short: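 Kᵢ values are geometric means (SEM) over replicates run on separate days, derived from IC₅₀ of four-parameter curve fits. Buffer: HEPES 25 mM pH 7.4 with CaCl₂ 2.5 mM, MgCl₂ 1 mM, bacitracin 0.1%, TWEEN-20 0.003%, EDTA-free protease inhibitors.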

human GIP receptor = molecular target: T1, human GIP receptor; experiment: SPA competition vs [125I]-GIP, hGIPR membranes

| Binder | Ki (human glucagon receptor) [nM] | Ki (human GLP-1 receptor) [nM] | Ki (human GIP receptor) [nM] |
| --- | --- | --- | --- |
| YXEGTXTSDXXIXLDXKAQXEFIXXLIKGGPSSGAPPPS (Aib2, αMeF(2F)6, 4Pal10, Aib11, αMeL13, Orn16, K17(Z1), Aib20, D-Glu24, αMeY25, K28(Z1), C-term NH2; Z1=AEEA3-(γ-Glu)-CO-(CH2)10-CH3) | 85.9 | 0.275 | 0.0207 |
| YXEGTXTSDXXIXLDXKAQXEFIXXLIEGGPSSGAPPPSK (Aib2, αMeF(2F)6, 4Pal10, Aib11, αMeL13, Orn16, K17(Z1), Aib20, D-Glu24, αMeY25, K40(Z1), C-term NH2; Z1=AEEA3-(γ-Glu)-CO-(CH2)10-CH3) | 16 | 0.219 | 0.0206 |
| YXEGTXTSDKXIXLDXKAQXXFIXXLIEGGPSSGAPPPS (Aib2, αMeF(2F)6, K10(Z1), Aib11, αMeL13, Orn16, K17(Z1), Aib20, Orn21, D-Glu24, αMeY25, C-term NH2; Z1=AEEA3-(γ-Glu)-CO-(CH2)10-CH3) | 356 | 0.134 | 0.0134 |
| YXEGTXTSDXXIXLDXKAQXKFIXXLIXGGPSSGAPPPS (Aib2, αMeF(2F)6, 4Pal10, Aib11, αMeL13, Orn16, K17(Z1), Aib20, K21(Z1), D-Glu24, αMeY25, Orn28, C-term NH2; Z1=AEEA3-(γ-Glu)-CO-(CH2)10-CH3) | 28.3 | 0.187 | 0.0175 |
| YXEGTXTSDXXIXLDXKAQXXFIXXLIKGGPSSGAPPPS (Aib2, αMeF(2F)6, 4Pal10, Aib11, αMeL13, Orn16, K17(Z1), Aib20, Orn21, D-Glu24, αMeY25, K28(Z1), C-term NH2; Z1=AEEA3-(γ-Glu)-CO-(CH2)10-CH3) | 81.2 | 0.15 | 0.00965 |
| YXEGTXTSDXXIXLDXKAQXXFIXXLIEGGPSSGAPPPSK (Aib2, αMeF(2F)6, 4Pal10, Aib11, αMeL13, Orn16, K17(Z1), Aib20, Orn21, D-Glu24, αMeY25, K40(Z1), C-term NH2; Z1=AEEA3-(γ-Glu)-CO-(CH2)10-CH3) [Y-Aib-EGT-αMeF(2F)-TSD-4Pal-Aib-I-αMeL-LD-Orn-K((2-[2-(2-Amino-ethoxy)-ethoxy]-acetyl)3-(γ …] | 14.4 | 0.122 | 0.0091 |
| YXEGTXTSDKXIXLDXKAQXEXIXXLIEGGPSSGAPPPS (Aib2, αMeF(2F)6, K10(Z1), Aib11, αMeL13, Orn16, K17(Z1), Aib20, αMeF22, D-Glu24, αMeY25, C-term NH2; Z1=AEEA3-(γ-Glu)-CO-(CH2)10-CH3) | 64.9 | 0.412 | 0.0372 |
| YXEGTXTSDXXIXLDXQAQXXFIKXLIKGGPSSGAPPPS (Aib2, αMeF(2F)6, 4Pal10, Aib11, αMeL13, Orn16, Aib20, Orn21, K24(Z1), αMeY25, K28(Z1), C-term NH2; Z1=AEEA2-(γ-Glu)-(10-(4-carboxyphenoxy)decanoyl)) | 131 | 0.373 | 0.0312 |
| YXEGTXTSDXXIXLDXQAQXXFIKXLIKGGPSSGAPPPS (Aib2, αMeF(2F)6, 4Pal10, Aib11, αMeL13, Orn16, Aib20, Orn21, K24(Z1), αMeY25, K28(Z1), C-term NH2; Z1=AEEA2-(γ-Glu)-(11-(4-carboxyphenoxy)undecanoyl)) | 130 | 0.164 | 0.0507 |
| YXEGTXTSDXSIXLDXKAQXEFIXXLIEGGKSSGAPPPS (Aib2, αMeF(2F)6, 4Pal10, αMeL13, Orn16, K17(Z1), Aib20, D-Glu24, αMeY25, K31(Z1), C-term NH2; Z1=AEEA2-(γ-Glu)-CO-(CH2)12-CH3) | 4.29 | 0.139 | 0.024 |
| Y[Aib]EGT[αMePhe(2-F)]TSDV[Aib]I[αMeL]LD[Orn]QAQ[Aib]EFIK([AEEA-AEEA-γGlu-Decanoyl(10-(4-HOOC-PhO))])[αMeY]LIK([AEEA-AEEA-γGlu-Decanoyl(10-(4-HOOC-PhO))])GGPSSGAPPPS-NH2 | 109 | 0.382 | 0.0369 |
| Y[Aib]EGT[αMePhe(2-F)]TSDV[Aib]I[αMeL]LD[Orn]QAQ[Aib][Orn]FIK([AEEA-AEEA-γGlu-C14 diacid])[αMeY]LIK([AEEA-AEEA-γGlu-C14 diacid])GGPSSGAPPPS-NH2 (N-terminus assumed; SMILES CC[C@H](C)[C@H](NC(=O)[C@H](CC(C)C)NC(=O)[C@](C)(Cc1ccc(O)cc1)NC(=O)[C@H](CCCCNC(=O)COCCOCCNC(=O)COCCOCCNC(=O)CC[C@H](NC(=O)CCCCCCCCCCCCC(=O)O)C(=O)O)NC(=O)[C@@H](NC(=O)[C@H](Cc1ccccc1)NC(=O)[C@H](CCCN)NC(=O)C(C)(C)NC(=O)[C@H](CCC(N)=O)NC(=O)[C@H](C)NC(=O)[C@H](CCC(N)=O)NC(=O)[C@H](CCCN)NC(=O)[C@H](CC(=O)O)NC(=O)[C@H](CC(C)C)NC(=O)[C@](C)(CC(C)C)NC(=O)[C@@H](NC(=O)C(C)(C)NC(=O)[C@@H](NC(=O)[C@H](CC(=O)O)NC(=O)[C@H](CO)NC(=O)[C@@H](NC(=O)[C@](C)(Cc1ccccc1F)NC(=O)[C@@H](NC(=O)CNC(=O)[C@H](CCC(=O)O)NC(=O)C(C)(C)NC(=O)[C@@H](N)Cc1ccc(O)cc1)[C@@H](C)O)[C@@H](C)O)C(C)C)[C@@H](C)CC)[C@@H](C)CC)C(=O)N[C@@H](CCCCNC(=O)COCCOCCNC(=O)COCCOCCNC(=O)CC[C@H](NC(=O)CCCCCCCCCCCCC(=O)O)C(=O)O)C(=O)NCC(=O)NCC(=O)N1CCC[C@H]1C(=O)N[C@@H](CO)C(=O)N[C@@H](CO)C(=O)NCC(=O)N[C@@H](C)C(=O)N1CCC[C@H]1C(=O)N1CCC[C@H]1C(=O)N1CCC[C@H]1C(=O)N[C@@H](CO)C(N)=O) | 116 | 0.367 | 0.0314 |
| YXEGTXTSDYXIXLDXIAQXXFIKXLIKGGPSSGAPPPS (Aib2, αMeF(2F)6, Aib11, αMeL13, Orn16, Aib20, Orn21, K24(Z1), αMeY25, K28(Z1), C-term NH2; Z1=AEEA3-(γ-Glu)-(10-(4-carboxyphenoxy)decanoyl)) | 20.1 | 0.326 | 0.0266 |
| YXEGTXTSDYXIXLDXIAQXXFIKXLIKGGPSSGAPPPS (Aib2, αMeF(2F)6, Aib11, αMeL13, Orn16, Aib20, Orn21, K24(Z1), αMeY25, K28(Z1), C-term NH2; Z1=AEEA3-(γ-Glu)-CO-(CH2)12-CO2H) | 49.7 | 0.407 | 0.0406 |
| YXEGTXTSDXXIXLDXQAQXXFIKXLIKGGPSSGAPPPS (Aib2, αMeF(2F)6, 4Pal10, Aib11, αMeL13, Orn16, Aib20, Orn21, K24(Z1), αMeY25, K28(Z1), C-term NH2; Z1=AEEA-Ahx-(γ-Glu)-CO-(CH2)12-CO2 (so in the source)) | 243 | 0.201 | 0.0133 |
